How the values were obtained:
Test in all cases: IEDB peptide-MHC binding, purified MHC/competitive/fluorescence; filed as Kd, often an IC50 or EC50 that approximates it; ≥ and ≤ were set here for values at or beyond the usual limits of such assays
Conditions in all cases: source organism: Entamoeba histolytica HM-1:IMSS
HLA-A*01:01 = target: HLA-A*01:01
HLA-A*02:03 = target: HLA-A*02:03
HLA-A*02:11 = target: HLA-A*02:11
HLA-A*02:12 = target: HLA-A*02:12
HLA-A*30:02 = target: HLA-A*30:02
HLA-B*15:01 = target: HLA-B*15:01
HLA-B*18:01 = target: HLA-B*18:01
HLA-B*58:01 = target: HLA-B*58:01

With EVIRATYPS the Kd (HLA-A*01:01) was at least 5 µM, the Kd (HLA-A*02:03) was at least 20 µM and the Kd (HLA-A*02:11) was at least 20 µM. For the same sequence, the Kd (HLA-A*02:12) was at least 20 µM, the Kd (HLA-A*30:02) was at least 5 µM and the Kd (HLA-B*15:01) was at least 20 µM. The Kd (HLA-B*18:01) was at least 20 µM and the Kd (HLA-B*58:01) was at least 5 µM.

From the Immune Epitope Database (IEDB)
